These results are taken from the Immune Epitope Database (IEDB).

Holding throughout (assay): IEDB peptide-MHC binding, purified MHC/competitive/radioactivity; ≥ and ≤ were set here for values at or beyond the usual limits of such assays
Assay [1] concerns the target HLA-A*02:01.
Assay [2] has as its target HLA-A*02:02.
For assay [3], the target named is HLA-A*02:03.
Assay [4] concerns the target HLA-A*02:06.
The target in assay [5] is HLA-A*68:02.
[6] abbreviates: source organism: Vaccinia virus WR.
The mark [7] stands for this setting: source organism: Mammarenavirus whitewaterense.
Where [8] appears, read: source organism: Hepacivirus hominis.
Setting [9] is: source organism: Mammarenavirus machupoense.

Turning to CTINVNSLAL, the concentration for half-maximal inhibition (IC50) in assay [1] (setting [6]) amounted to 1.04 µM; in assay [2] (setting [6]), 0.494 µM; in assay [3] (setting [6]) it was 1.04 µM; in assay [4] (setting [6]) it was 0.216 µM; in assay [5] (setting [6]), 0.517 µM.

Regarding KMAVEVGSI, the IC50 is 0.155 µM in assay [1] (setting [6]); 0.031 µM in assay [2] (setting [6]); 0.0028 µM in assay [3] (setting [6]); 0.119 µM in assay [4] (setting [6]); 0.806 µM in assay [5] (setting [6]).

Turning to YCNYTKFWYV, the half-maximal inhibitory concentration (IC50) in assay [1] (setting [7]) worked out at 0.075 µM; in assay [2] (setting [7]), 0.322 µM; in assay [3] (setting [7]), 0.102 µM; in assay [4] (setting [7]), 0.0065 µM; in assay [5] (setting [7]), 0.49 µM.

Consider VLAGGVLAAV, for which the IC50 in assay [1] (setting [8]) was 0.0078 µM; in assay [2] (setting [8]) it was 0.0043 µM; in assay [3] (setting [8]), 0.0067 µM; in assay [4] (setting [8]) it was 0.033 µM; in assay [5] (setting [8]), 0.059 µM.

As for KSFFWFNEV, the IC50 was 0.0065 µM in assay [1] (setting [9]); 0.062 µM in assay [2] (setting [9]); 0.265 µM in assay [3] (setting [9]); 0.0032 µM in assay [4] (setting [9]); 0.084 µM in assay [5] (setting [9]).

On to RLRQDTEDI, for which the concentration for half-maximal inhibition (IC50) in assay [1] (setting [6]) came out at 0.219 µM; in assay [2] (setting [6]) it was 0.23 µM; in assay [3] (setting [6]), 0.387 µM; in assay [4] (setting [6]), 4.58 µM; in assay [5] (setting [6]), 4.17 µM.

Regarding MMNITRLEVI, the IC50 in assay [1] (setting [6]) was 0.144 µM; in assay [2] (setting [6]) it was 0.085 µM; in assay [3] (setting [6]), 0.026 µM; in assay [4] (setting [6]), 0.134 µM; in assay [5] (setting [6]), 0.428 µM.

Take LLMCAVHPEL: the 50% inhibitory concentration (IC50) in assay [1] (setting [8]) was 0.054 µM; in assay [2] (setting [8]), 0.025 µM; in assay [3] (setting [8]), 0.177 µM; in assay [4] (setting [8]), 0.442 µM; in assay [5] (setting [8]) it was 1.35 µM.

FTILEYLYIM: the IC50 in assay [1] (setting [6]) turned out to be 0.095 µM; in assay [2] (setting [6]), 0.355 µM; in assay [3] (setting [6]), 3.2 µM; in assay [4] (setting [6]) it was 0.04 µM; in assay [5] (setting [6]), 2.17 µM.

Turning to DTCLLAISAV, the IC50 in assay [1] (setting [6]) was found to be 0.046 µM; in assay [2] (setting [6]), 2.46 µM; in assay [3] (setting [6]), 0.093 µM; in assay [4] (setting [6]), 0.106 µM; in assay [5] (setting [6]), 0.118 µM.

YMSNLFDIPL: the IC50 in assay [1] (setting [6]) stood at 0.018 µM; in assay [2] (setting [6]) it was 0.019 µM; in assay [3] (setting [6]) it was 0.01 µM; in assay [4] (setting [6]), 0.127 µM; in assay [5] (setting [6]) it was 0.471 µM.

Regarding GIYNCCESNI, the IC50 in assay [1] (setting [6]) stood at 0.331 µM; in assay [2] (setting [6]), 0.068 µM; in assay [3] (setting [6]), 0.14 µM; in assay [4] (setting [6]), 0.29 µM; in assay [5] (setting [6]) it was 3.8 µM.

As for SVDVDIYDAV, the IC50 in assay [1] (setting [6]) is 0.153 µM; in assay [2] (setting [6]) it was 0.00043 µM; in assay [3] (setting [6]) it was 0.0092 µM; in assay [4] (setting [6]) it was 0.0033 µM; in assay [5] (setting [6]), 0.00025 µM.

As to STDQDTMLFA, the IC50 came out at 3.52 µM in assay [1] (setting [6]); 0.646 µM in assay [2] (setting [6]); 4.7 µM in assay [3] (setting [6]); 2.02 µM in assay [4] (setting [6]); 1.55 µM in assay [5] (setting [6]).

Take KIEDLINQLV: the half-maximal inhibitory concentration (IC50) stood at 0.286 µM in assay [1] (setting [6]); 0.087 µM in assay [2] (setting [6]); 0.071 µM in assay [3] (setting [6]); 0.145 µM in assay [4] (setting [6]); 1.05 µM in assay [5] (setting [6]).

For IVAALVFLI, the concentration for half-maximal inhibition (IC50) turned out to be 0.0021 µM in assay [1] (source organism: SARS-CoV1); 0.00014 µM in assay [2] (source organism: SARS-CoV1); 0.015 µM in assay [3] (source organism: SARS-CoV1); 0.0018 µM in assay [4] (source organism: SARS-CoV1); 0.00058 µM in assay [5] (source organism: SARS-CoV1).

Take ELAYYNSCM: the IC50 in assay [1] (setting [6]) worked out at 4.37 µM; in assay [2] (setting [6]), 0.129 µM; in assay [3] (setting [6]), 0.136 µM; in assay [4] (setting [6]), 3.58 µM; in assay [5] (setting [6]), 0.278 µM.

Turning to FQESFYEDIA, the half-inhibitory concentration (IC50) in assay [1] (setting [6]) came out at 4.84 µM; in assay [2] (setting [6]), 2.56 µM; in assay [3] (setting [6]), 0.555 µM; in assay [4] (setting [6]), 0.303 µM; in assay [5] (setting [6]) it was 2.91 µM.

In the case of MLLAYLVRI, the IC50 stood at 0.0033 µM in assay [1] (setting [8]); 0.0066 µM in assay [2] (setting [8]); 0.012 µM in assay [3] (setting [8]); 0.005 µM in assay [4] (setting [8]); 1.83 µM in assay [5] (setting [8]).

As to ELTTVFIKYV, the half-inhibitory concentration (IC50) in assay [1] (setting [6]) came out at 2.56 µM; in assay [2] (setting [6]), 2.79 µM; in assay [3] (setting [6]), 0.719 µM; in assay [4] (setting [6]), 0.463 µM; in assay [5] (setting [6]), 0.081 µM.

On to LLFNKVTLA, for which the IC50 turned out to be 0.005 µM in assay [1] (source organism: SARS-CoV1); 0.00095 µM in assay [2] (source organism: SARS-CoV1); 0.0011 µM in assay [3] (source organism: SARS-CoV1); 0.009 µM in assay [4] (source organism: SARS-CoV1); 0.288 µM in assay [5] (source organism: SARS-CoV1).

Turning to GVCYYLLMHL, the IC50 in assay [1] (setting [6]) came to 0.124 µM; in assay [2] (setting [6]), 0.096 µM; in assay [3] (setting [6]) it was 0.064 µM; in assay [4] (setting [6]) it was 0.128 µM; in assay [5] (setting [6]) it was 0.08 µM.

On to FTEGKINPLL, for which the IC50 in assay [1] (setting [6]) came out at 0.162 µM; in assay [2] (setting [6]) it was 0.15 µM; in assay [3] (setting [6]) it was 0.595 µM; in assay [4] (setting [6]) it was 0.086 µM; in assay [5] (setting [6]) it was 0.243 µM.

For GLIAIVMVTI, the IC50 in assay [1] (source organism: SARS-CoV1) came to 0.061 µM; in assay [2] (source organism: SARS-CoV1), 0.0076 µM; in assay [3] (source organism: SARS-CoV1), 0.019 µM; in assay [4] (source organism: SARS-CoV1), 0.137 µM; in assay [5] (source organism: SARS-CoV1) it was 1.67 µM.
